Reference: article PMC4828312

Legend:
[1] = target: Assembled microtubules (containing ~25% of TUBB3) (porcine); experiment: SPR
[2] = target: Human recombinant tubulin β-3 (TUBB3) (human) (UniProt Q13509); experiment: SPR
Sequence of Human recombinant tubulin β-3 (TUBB3) (human) (Q13509 whole entry): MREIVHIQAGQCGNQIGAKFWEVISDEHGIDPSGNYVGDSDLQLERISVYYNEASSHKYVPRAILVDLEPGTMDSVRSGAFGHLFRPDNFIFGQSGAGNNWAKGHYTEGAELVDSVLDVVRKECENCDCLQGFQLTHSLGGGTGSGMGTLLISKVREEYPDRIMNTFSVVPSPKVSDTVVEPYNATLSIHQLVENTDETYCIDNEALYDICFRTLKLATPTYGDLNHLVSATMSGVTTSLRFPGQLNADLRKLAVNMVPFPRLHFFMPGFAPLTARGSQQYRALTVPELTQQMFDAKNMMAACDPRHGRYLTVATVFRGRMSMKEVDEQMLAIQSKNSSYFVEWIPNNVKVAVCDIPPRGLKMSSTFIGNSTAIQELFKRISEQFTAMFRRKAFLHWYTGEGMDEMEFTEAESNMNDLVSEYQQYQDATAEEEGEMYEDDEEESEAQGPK

HIV-1 envelope glycoprotein gp120, strain ADA (natural protein)
Kd [1]: 12 nM | Kd [2]: 10.3 nM

HIV-1 envelope glycoprotein gp120, strain MN (from UniProt P05877 32-513) (natural protein)
Kd [1]: 62.7 nM

HIV-1 envelope glycoprotein gp120, strain IIIB (from UniProt P04578 33-511) (natural protein)
Kd [1]: 10 nM
